Data reported in patent US20210214417A1 (KAHR MEDICAL, published 2021).

Molecular target: T1, recombinant human His-tagged CD47 protein (ACRO Biosystem, cat # CD7-H5227) (human, UniProt Q08722 19-139)
T1 construct: also called Recombinant human CD47; not shown: His tag
Assay: competition ELISA: recombinant human CD47 on the plate, fusion protein added first, then biotinylated SIRPα as the blocked ligand, streptavidin-HRP and TMB, 450 nm; EC50 calculated over 0 to 0.7 ug/ml
Method: SIRPα-4-1BBL fusion protein, or a positive control anti CD47 antibody were added to the plate. Following wash biotinylated recombinant human SIRPα was added followed by streptavidin HRP and TMB substrate. Interaction of SIRPα with CD47 was measured by absorbance at 450 nm.
Methods—ELISA plates were coated overnight with recombinant human CD47. The plates were washed and incubated for 1 hour with different concentrations of the produced SIRPα-4-BBL fusion proteins or a positive control anti CD47 antibody. Following, a biotinylated SIRPα was added; and following 1 hour incubation the plates were washed and blotted with Streptavidin-HRP and TMB substrate according to a standard ELISA protocol (FIG. 13A). Plates were analyzed using a Plate reader (Thermo Scientific, Multiscan FC) at 450 nm, with reference at 620 nm.

T1 sequence (Q08722 19-139 limits assumed): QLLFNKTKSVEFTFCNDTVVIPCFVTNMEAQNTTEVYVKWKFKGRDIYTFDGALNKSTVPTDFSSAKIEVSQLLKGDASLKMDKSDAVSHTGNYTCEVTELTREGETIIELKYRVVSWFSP

B1: C-terminal his-tagged DSP107_V3.1 (SEQ ID NO: 17) (other)
chain: EEELQVIQPDKSVLVAAGETATLRCTATSLIPVGPIQWFRGAGPGRELIYNQKEGHFPRVTTVSDLTKRNNMDFSIRIGNITPADAGTYYCVKFRKGSPDDVEFKSGAGTELSVRAGSGARASPGSAASPRLREGPELSPDDPAGLLDLRQGMFAQLVAQNVLLIDGPLSWYSDPGLAGVSLTGGLSYKEDTKELVVAKAGVYYVFFQLELRRVVAGEGSGSVSLALHLQPLRSAAGAAALALTVDLPPASSEARNSAFGFQGRLLHLSAGQRLGVHLHTEARARHAWQLTQGATVLGLFRVTPEIPAGLPSPRSEHHHHHH
notes: also called (CH)-V3.1; DSP107_var3.1 with C-terminal His tag
- EC50: 0.103 µg/mL
